Measured values published in the Immune Epitope Database (IEDB).

Assays:
HLA-B*15:17 = assay: IEDB peptide-MHC binding, purified MHC/direct/fluorescence; filed as Kd, often an IC50 or EC50 that approximates it; ≥ and ≤ were set here for values at or beyond the usual limits of such assays
HLA-B*57:01 = assay: as above
HLA-B*58:01 = assay: as above
HLA-A*02:01 [1] = assay: IEDB peptide-MHC binding, purified MHC/competitive/radioactivity; filed as Kd, often an IC50 or EC50 that approximates it; ≥ and ≤ were set here for values at or beyond the usual limits of such assays
HLA-A*02:06 = assay: as above
HLA-A*02:17 = assay: as above
HLA-A*02:01 [2] = assay: IEDB peptide-MHC binding, purified MHC/competitive/fluorescence; ≥ and ≤ were set here for values at or beyond the usual limits of such assays
HLA-B*08:01 = assay: as above
HLA-A*01:01 = assay: IEDB peptide-MHC binding, purified MHC/direct/fluorescence; filed as Kd, often an IC50 or EC50 that approximates it; ≥ and ≤ were set here for values at or beyond the usual limits of such assays; conditions: source organism: Mycobacterium tuberculosis
HLA-A*02:01 [3] = assay: as above; conditions: source organism: Mycobacterium tuberculosis
HLA-A*03:01 = assay: as above; conditions: source organism: Mycobacterium tuberculosis
HLA-A*11:01 [4] = assay: as above; conditions: source organism: Mycobacterium tuberculosis
HLA-A*31:01 = assay: as above; conditions: source organism: Mycobacterium tuberculosis
HLA-A*69:01 = assay: as above; conditions: source organism: Mycobacterium tuberculosis
HLA-B*15:01 [5] = assay: as above; conditions: source organism: Mycobacterium tuberculosis
HLA-B*18:01 = assay: as above; conditions: source organism: Mycobacterium tuberculosis
HLA-B*27:05 = assay: as above; conditions: source organism: Mycobacterium tuberculosis
HLA-B*39:01 = assay: as above; conditions: source organism: Mycobacterium tuberculosis str. Haarlem
HLA-B*40:01 = assay: as above; conditions: source organism: Mycobacterium tuberculosis
HLA-B*46:01 = assay: as above; conditions: source organism: Mycobacterium tuberculosis
HLA-B*48:01 = assay: as above; conditions: source organism: Mycobacterium tuberculosis
HLA-B*51:01 [6] = assay: as above; conditions: source organism: Mycobacterium tuberculosis
HLA-B*35:01 = assay: IEDB peptide-MHC binding, purified MHC/competitive/radioactivity; filed as Kd, often an IC50 or EC50 that approximates it; ≥ and ≤ were set here for values at or beyond the usual limits of such assays
HLA-B*51:01 [7] = assay: as above; conditions: source organism: Dengue virus 4 Philippines/H241/1956
HLA-B*53:01 = assay: as above; conditions: source organism: Dengue virus 4 Philippines/H241/1956
HLA-A*02:03 [8] = assay: IEDB peptide-MHC binding, purified MHC/direct/fluorescence; filed as Kd, often an IC50 or EC50 that approximates it; ≥ and ≤ were set here for values at or beyond the usual limits of such assays; conditions: source organism: Mycobacterium tuberculosis str. Haarlem
HLA-A*02:03 [9] = assay: IEDB peptide-MHC binding, purified MHC/competitive/radioactivity; filed as Kd, often an IC50 or EC50 that approximates it; ≥ and ≤ were set here for values at or beyond the usual limits of such assays; conditions: source organism: Dengue virus 2 Jamaica/1409/1983
HLA-A*23:01 = assay: as above; conditions: source organism: Dengue virus 1 Brazil/97-11/1997
HLA-A*24:02 [10] = assay: as above; conditions: source organism: Dengue virus 1 Brazil/97-11/1997
HLA-B*15:01 [11] = assay: as above; conditions: source organism: Dengue virus 1 Brazil/97-11/1997
HLA-A*11:01 [12] = assay: IEDB peptide-MHC binding, purified MHC/competitive/fluorescence; ≥ and ≤ were set here for values at or beyond the usual limits of such assays; conditions: source organism: Zaire ebolavirus
HLA-A*24:02 [13] = assay: as above; conditions: source organism: Zaire ebolavirus
[14] = source organism: Vibrio cholerae
[15] = source organism: Dengue virus 1 Singapore/S275/1990
[16] = source organism: Dengue virus 1 Brazil/97-11/1997
[17] = source organism: Vaccinia virus
[18] = source organism: Mycobacterium tuberculosis
[19] = source organism: Lake Victoria marburgvirus - Popp
[20] = source organism: Dengue virus 3 China/80-2/1980
[21] = source organism: Dengue virus 2 Jamaica/1409/1983
[22] = source organism: Dengue virus 4 Philippines/H241/1956
[23] = source organism: Zaire ebolavirus

How did the Kd (HLA-B*15:17; [14]) turn out when QMEQWGCPW was run?
Its Kd is 0.147 µM.

What about the Kd (HLA-B*57:01; [14]) of the same sequence?
Its Kd is 5.43 µM.

And the Kd (HLA-B*58:01; [14])?
Its Kd is 1.06 µM.

MLLMLLPTA was tested. Which Kd (HLA-A*02:01 [1]; [15]) did it give?
The Kd was 0.000482 µM.

What about the Kd (HLA-A*02:06; [16]) of the same sequence?
The Kd was 0.00108 µM.

And the Kd (HLA-A*02:17; [15])?
The Kd was 0.161 µM.

With FRAFRNLNV as the sequence, how does the IC50 (HLA-A*02:01 [2]; [17]) read?
The IC50 was ≥ 89.1 µM.

And the IC50 (HLA-B*08:01; [17])?
The IC50 was 6.19 µM.

Which Kd (HLA-A*01:01) does the source give for GPRGRHVVL here?
The Kd was ≥ 20 µM.

What about the Kd (HLA-A*02:01 [3]) of the same sequence?
Its Kd is ≥ 20 µM.

And the Kd (HLA-A*03:01)?
Its Kd is ≥ 20 µM.

And the Kd (HLA-A*11:01 [4])?
The Kd was ≥ 20 µM.

What about the Kd (HLA-A*31:01) of the same sequence?
The Kd was ≥ 20 µM.

And the Kd (HLA-A*69:01)?
The Kd was ≥ 20 µM.

What about the Kd (HLA-B*15:01 [5]) of the same sequence?
The Kd was ≥ 20 µM.

And the Kd (HLA-B*15:17; [18])?
The Kd was ≥ 20 µM.

What about the Kd (HLA-B*18:01) of the same sequence?
The Kd was ≥ 20 µM.

What about the Kd (HLA-B*27:05) of the same sequence?
The Kd was ≥ 20 µM.

And the Kd (HLA-B*39:01)?
The Kd was ≥ 20 µM.

What about the Kd (HLA-B*40:01) of the same sequence?
The Kd was ≥ 20 µM.

And the Kd (HLA-B*46:01)?
Its Kd is ≥ 20 µM.

What about the Kd (HLA-B*48:01) of the same sequence?
Its Kd is ≥ 20 µM.

What about the Kd (HLA-B*51:01 [6]) of the same sequence?
The Kd was ≥ 20 µM.

What about the Kd (HLA-B*57:01; [18]) of the same sequence?
Its Kd is ≥ 20 µM.

What about the Kd (HLA-B*58:01; [18]) of the same sequence?
The Kd was ≥ 20 µM.

For ITDITSPLW, which Kd (HLA-B*15:17; [19]) is on record?
Its Kd is ≤ 0.001 µM.

And the Kd (HLA-B*57:01; [19])?
The Kd was 0.0645 µM.

And the Kd (HLA-B*58:01; [19])?
Its Kd is 0.003 µM.

What does the source list for QLANAIFKL?
Kd (HLA-A*02:01 [1]; [20]): 0.00409 µM; Kd (HLA-A*02:17; [20]): 0.0244 µM

IILEFFLIVL was tested. Which Kd (HLA-A*02:01 [1]; [21]) did it give?
Its Kd is 0.109 µM.

What about the Kd (HLA-A*02:06; [21]) of the same sequence?
The Kd was 0.325 µM.

And the Kd (HLA-A*02:17; [21])?
The Kd was 0.802 µM.

With FSMGLLCLTL as the sequence, how does the Kd (HLA-A*02:01 [1]; [22]) read?
Its Kd is 8.99 µM.

What about the Kd (HLA-A*02:06; [22]) of the same sequence?
The Kd was 0.00849 µM.

And the Kd (HLA-A*02:17; [22])?
The Kd was 0.084 µM.

What about the Kd (HLA-B*35:01; [22]) of the same sequence?
Its Kd is 3.07 µM.

What about the Kd (HLA-B*51:01 [7]) of the same sequence?
Its Kd is ≥ 69.6 µM.

And the Kd (HLA-B*53:01)?
The Kd was 0.333 µM.

AMWDWSKSV was tested. Which Kd (HLA-A*02:03 [8]) did it give?
The Kd was ≤ 0.001 µM.

Which results are given for LLLTLLATV?
Kd (HLA-A*02:03 [9]): 0.00155 µM; Kd (HLA-A*02:06; [21]): 0.00101 µM; Kd (HLA-A*02:17; [21]): 0.157 µM

With MLMTGTLAVF as the sequence, how does the Kd (HLA-A*02:01 [1]; [15]) read?
Its Kd is 0.0751 µM.

What about the Kd (HLA-A*02:17; [15]) of the same sequence?
The Kd was 0.0323 µM.

What about the Kd (HLA-A*23:01) of the same sequence?
Its Kd is 0.055 µM.

What about the Kd (HLA-A*24:02 [10]) of the same sequence?
Its Kd is 0.296 µM.

What about the Kd (HLA-B*15:01 [11]) of the same sequence?
The Kd was 0.00124 µM.

And the Kd (HLA-B*35:01; [16])?
The Kd was 0.342 µM.

What does the source list for YMWLGARFL?
Kd (HLA-A*02:01 [1]; [21]): 0.00672 µM; Kd (HLA-A*02:17; [21]): 0.0942 µM

With QGIVRQRVI as the sequence, how does the IC50 (HLA-A*02:01 [2]; [23]) read?
The IC50 was ≥ 401 µM.

What about the IC50 (HLA-A*11:01 [12]) of the same sequence?
Its IC50 is ≥ 159 µM.

What about the IC50 (HLA-A*24:02 [13]) of the same sequence?
Its IC50 is 11.4 µM.

And the IC50 (HLA-B*08:01; [23])?
The IC50 was 7.35 µM.
